# Data taken from patent publication US20030068675, “Position dependent recognition of GNN nucleotide triplets by zinc fingers” (published 2003).
# B1: ATGGTGTGT (dsDNA)
# DNA 1: ATGGTGTGT
# DNA 2: ACACACCAT
# B2: TTGGGAGAG (dsDNA)
# DNA 1: TTGGGAGAG
# DNA 2: CTCTCCCAA
# B3: GTGGGAATA (dsDNA)
# DNA 1: GTGGGAATA
# DNA 2: TATTCCCAC
# B4: TTGGTTGGT (dsDNA)
# DNA 1: TTGGTTGGT
# DNA 2: ACCAACCAA
# B5: GAGGTGTGA (dsDNA)
# DNA 1: GAGGTGTGA
# DNA 2: TCACACCTC
# B6: CCGGCGCTG (dsDNA)
# DNA 1: CCGGCGCTG
# DNA 2: CAGCGCCGG
# B7: GACGCTGGC (dsDNA)
# DNA 1: GACGCTGGC
# DNA 2: GCCAGCGTC
# B8: CGGGCTGGA (dsDNA)
# DNA 1: CGGGCTGGA
# DNA 2: TCCAGCCCG
# B9: GGGATGGCG (dsDNA)
# DNA 1: GGGATGGCG
# DNA 2: CGCCATCCC
# B10: CAGGCGCAG (dsDNA)
# DNA 1: CAGGCGCAG
# DNA 2: CTGCGCCTG
# B11: CCGGGCGAC (dsDNA)
# DNA 1: CCGGGCGAC
# DNA 2: GTCGCCCGG
# B12: GATGTGTGA (dsDNA)
# DNA 1: GATGTGTGA
# DNA 2: TCACACATC
# B13: CAGTGAATG (dsDNA)
# DNA 1: CAGTGAATG
# DNA 2: CATTCACTG
# B14: GGGTCACTG (dsDNA)
# DNA 1: GGGTCACTG
# DNA 2: CAGTGACCC
# B15: GTGTGGGTC (dsDNA)
# DNA 1: GTGTGGGTC
# DNA 2: GACCCACAC
# B16: CTGGCGAGA (dsDNA)
# DNA 1: CTGGCGAGA
# DNA 2: TCTCGCCAG
# B17: GCTTTGGCA (dsDNA)
# DNA 1: GCTTTGGCA
# DNA 2: TGCCAAAGC
# B18: GACTTGGTA (dsDNA)
# DNA 1: GACTTGGTA
# DNA 2: TACCAAGTC
# Assays:
# Test in all cases: EMSA
# Settings in all cases: tags: MBP fusion
# ZFP SBS#1318 = biological target: T1, ZFP SBS#1318 (synthetic, UniProt P08047)
# T1 chain: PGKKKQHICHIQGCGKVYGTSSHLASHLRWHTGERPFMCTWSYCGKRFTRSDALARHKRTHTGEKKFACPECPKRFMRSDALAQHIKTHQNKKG
# How it was run: (§1)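 Purified ZFP was titrated against labeled double-stranded target (1 nM or lower, at least 10-fold below expected Kd) carrying the natural binding site with flanks. Binding buffer was 10 mM Tris pH 7.5, 100 mM KCl, 1 mM MgCl2, 0.1 mM ZnCl2, 5 mM DTT, 10% glycerol, 0.02% BSA, with equilibration for at least 45 min. Bound and free target were separated on a 10% polyacrylamide gel.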
# ZFP SBS#1319 = biological target: T2, ZFP SBS#1319 (synthetic)
# T2 chain: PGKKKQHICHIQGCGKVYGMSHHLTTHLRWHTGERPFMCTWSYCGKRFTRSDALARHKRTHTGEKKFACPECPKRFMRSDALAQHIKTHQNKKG
# How it was run: as §1
# ZFP SBS#1321 = biological target: T3, ZFP SBS#1321 (synthetic)
# T3 chain: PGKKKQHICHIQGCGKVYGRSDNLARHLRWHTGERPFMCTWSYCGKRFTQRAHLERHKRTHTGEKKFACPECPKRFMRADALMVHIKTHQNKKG
# How it was run: as §1
# ZFP SBS#1320 = biological target: T4, ZFP SBS#1320 (synthetic)
# T4 chain: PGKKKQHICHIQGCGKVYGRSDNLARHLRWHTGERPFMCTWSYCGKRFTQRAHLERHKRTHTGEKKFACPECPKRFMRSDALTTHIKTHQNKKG
# How it was run: as §1
# ZFP SBS#1323 = ZFP SBS#1323 (synthetic)
# How it was run: as §1
# ZFP SBS#1324 = ZFP SBS#1324 (synthetic)
# Sequence of ZFP SBS#1324 (synthetic) (chain, as listed by the source): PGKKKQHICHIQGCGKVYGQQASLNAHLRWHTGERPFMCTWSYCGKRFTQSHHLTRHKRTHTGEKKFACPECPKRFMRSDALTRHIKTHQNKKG
# How it was run: as §1
# ZFP SBS#1322 = ZFP SBS#1322 (synthetic)
# Sequence of ZFP SBS#1322 (synthetic) (chain, as listed by the source): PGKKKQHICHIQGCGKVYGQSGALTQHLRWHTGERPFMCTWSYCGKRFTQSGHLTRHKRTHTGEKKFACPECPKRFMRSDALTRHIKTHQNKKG
# How it was run: as §1
# ZFP SBS#1325 = biological target: T5, ZFP SBS#1325 (synthetic)
# T5 chain: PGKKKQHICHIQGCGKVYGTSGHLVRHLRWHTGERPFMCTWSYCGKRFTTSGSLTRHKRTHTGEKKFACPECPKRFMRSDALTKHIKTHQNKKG
# How it was run: as §1
# ZFP SBS#1326 = biological target: T6, ZFP SBS#1326 (synthetic)
# T6 chain: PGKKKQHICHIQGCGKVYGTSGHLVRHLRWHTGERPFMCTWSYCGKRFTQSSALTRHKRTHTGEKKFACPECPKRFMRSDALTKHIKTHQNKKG
# How it was run: as §1
# ZFP SBS#1327 = biological target: T7, ZFP SBS#1327 (synthetic)
# T7 chain: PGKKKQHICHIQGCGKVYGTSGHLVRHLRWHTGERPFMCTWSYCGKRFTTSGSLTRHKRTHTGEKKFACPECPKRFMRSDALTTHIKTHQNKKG
# How it was run: as §1
# ZFP SBS#1328 = biological target: T8, ZFP SBS#1328 (synthetic)
# T8 chain: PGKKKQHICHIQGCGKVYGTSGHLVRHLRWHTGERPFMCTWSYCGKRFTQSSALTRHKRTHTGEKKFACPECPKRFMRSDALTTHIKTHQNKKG
# How it was run: as §1
# ZFP SBS#1330 = ZFP SBS#1330 (synthetic)
# Sequence of ZFP SBS#1330 (synthetic) (chain, as listed by the source): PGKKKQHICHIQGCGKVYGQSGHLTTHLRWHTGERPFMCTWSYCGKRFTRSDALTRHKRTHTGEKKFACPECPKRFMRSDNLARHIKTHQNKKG
# How it was run: as §1
# ZFP SBS#1334 = biological target: T9, ZFP SBS#1334 (synthetic)
# T9 chain: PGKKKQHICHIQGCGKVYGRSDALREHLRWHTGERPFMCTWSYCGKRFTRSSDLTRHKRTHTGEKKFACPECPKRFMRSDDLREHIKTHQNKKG
# How it was run: as §1
# ZFP SBS#1335 = biological target: T10, ZFP SBS#1335 (synthetic)
# T10 chain: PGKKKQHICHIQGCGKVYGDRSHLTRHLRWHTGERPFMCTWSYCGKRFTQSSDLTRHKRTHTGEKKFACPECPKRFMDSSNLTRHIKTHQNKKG
# How it was run: as §1
# ZFP SBS#1337 = ZFP SBS#1337 (synthetic)
# Sequence of ZFP SBS#1337 (synthetic) (chain, as listed by the source): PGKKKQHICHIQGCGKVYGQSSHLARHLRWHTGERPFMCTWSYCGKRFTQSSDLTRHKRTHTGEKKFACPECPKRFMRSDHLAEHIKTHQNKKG
# How it was run: as §1
# ZFP SBS#1336 = biological target: T11, ZFP SBS#1336 (synthetic)
# T11 chain: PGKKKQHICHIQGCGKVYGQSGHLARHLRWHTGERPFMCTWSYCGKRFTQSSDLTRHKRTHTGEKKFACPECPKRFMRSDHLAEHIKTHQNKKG
# How it was run: as §1
# ZFP SBS#1339 = biological target: T12, ZFP SBS#1339 (synthetic)
# T12 chain: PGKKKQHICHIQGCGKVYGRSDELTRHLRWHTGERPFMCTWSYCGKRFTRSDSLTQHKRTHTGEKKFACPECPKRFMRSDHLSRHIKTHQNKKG
# How it was run: as §1
# ZFP SBS#1341 = biological target: T13, ZFP SBS#1341 (synthetic)
# T13 chain: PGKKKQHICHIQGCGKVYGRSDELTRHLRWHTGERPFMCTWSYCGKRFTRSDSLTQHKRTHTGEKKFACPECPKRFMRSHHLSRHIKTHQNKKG
# How it was run: as §1
# ZFP SBS#1340 = biological target: T14, ZFP SBS#1340 (synthetic)
# T14 chain: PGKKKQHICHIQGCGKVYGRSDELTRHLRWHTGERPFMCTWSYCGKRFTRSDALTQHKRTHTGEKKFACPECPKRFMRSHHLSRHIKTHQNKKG
# How it was run: as §1
# ZFP SBS#1338 = biological target: T15, ZFP SBS#1338 (synthetic)
# T15 chain: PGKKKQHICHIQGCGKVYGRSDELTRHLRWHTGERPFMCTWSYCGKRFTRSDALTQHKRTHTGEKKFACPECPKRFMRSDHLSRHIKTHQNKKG
# How it was run: as §1
# ZFP SBS#1342 = biological target: T16, ZFP SBS#1342 (synthetic)
# T16 chain: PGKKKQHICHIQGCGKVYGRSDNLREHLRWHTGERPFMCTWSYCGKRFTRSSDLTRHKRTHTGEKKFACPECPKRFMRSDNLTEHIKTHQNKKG
# How it was run: as §1
# ZFP SBS#1343 = biological target: T17, ZFP SBS#1343 (synthetic)
# T17 chain: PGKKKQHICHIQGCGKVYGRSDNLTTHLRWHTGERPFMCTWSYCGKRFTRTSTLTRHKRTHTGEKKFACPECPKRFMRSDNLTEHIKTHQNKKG
# How it was run: as §1
# ZFP SBS#1344 = biological target: T18, ZFP SBS#1344 (synthetic)
# T18 chain: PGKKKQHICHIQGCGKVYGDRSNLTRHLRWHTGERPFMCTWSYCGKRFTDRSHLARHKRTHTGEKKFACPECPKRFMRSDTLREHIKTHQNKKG
# How it was run: as §1
# ZFP SBS#1346 = ZFP SBS#1346 (synthetic)
# How it was run: as §1
# ZFP SBS#1347 = biological target: T19, ZFP SBS#1347 (synthetic)
# T19 chain: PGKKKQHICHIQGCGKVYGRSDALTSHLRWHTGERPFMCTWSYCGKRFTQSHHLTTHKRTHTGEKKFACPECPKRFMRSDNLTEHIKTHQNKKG
# How it was run: as §1
# ZFP SBS#1350 = ZFP SBS#1350 (synthetic)
# Sequence of ZFP SBS#1350 (synthetic) (chain, as listed by the source): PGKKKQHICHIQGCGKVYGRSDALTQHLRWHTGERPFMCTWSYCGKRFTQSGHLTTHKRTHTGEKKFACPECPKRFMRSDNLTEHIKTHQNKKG
# How it was run: as §1
# ZFP SBS#1351 = biological target: T20, ZFP SBS#1351 (synthetic)
# T20 chain: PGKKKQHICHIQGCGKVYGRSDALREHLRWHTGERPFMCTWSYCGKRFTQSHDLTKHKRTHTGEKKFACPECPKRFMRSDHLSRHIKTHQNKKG
# How it was run: as §1
# ZFP SBS#1348 = biological target: T21, ZFP SBS#1348 (synthetic)
# T21 chain: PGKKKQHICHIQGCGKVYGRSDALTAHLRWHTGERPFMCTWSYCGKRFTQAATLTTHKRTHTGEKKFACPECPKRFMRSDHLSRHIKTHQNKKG
# How it was run: as §1
# ZFP SBS#1352 = ZFP SBS#1352 (synthetic)
# Sequence of ZFP SBS#1352 (synthetic) (chain, as listed by the source): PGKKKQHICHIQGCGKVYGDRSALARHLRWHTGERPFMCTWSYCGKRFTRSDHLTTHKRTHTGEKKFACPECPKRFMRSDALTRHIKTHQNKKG
# How it was run: as §1
# ZFP SBS#1353 = biological target: T22, ZFP SBS#1353 (synthetic, UniProt P08047)
# T22 chain: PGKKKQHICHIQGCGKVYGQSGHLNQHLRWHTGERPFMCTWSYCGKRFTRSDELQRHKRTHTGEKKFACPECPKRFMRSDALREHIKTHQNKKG
# How it was run: as §1
# ZFP SBS#1354 = biological target: T23, ZFP SBS#1354 (synthetic, UniProt P08047)
# T23 chain: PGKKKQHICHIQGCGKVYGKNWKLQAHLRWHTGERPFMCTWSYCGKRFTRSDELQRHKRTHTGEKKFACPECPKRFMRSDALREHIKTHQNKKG
# How it was run: as §1
# ZFP SBS#1356 = ZFP SBS#1356 (synthetic)
# Sequence of ZFP SBS#1356 (synthetic) (chain, as listed by the source): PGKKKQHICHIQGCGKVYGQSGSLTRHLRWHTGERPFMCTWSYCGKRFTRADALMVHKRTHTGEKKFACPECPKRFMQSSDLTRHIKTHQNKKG
# How it was run: as §1
# ZFP SBS#1355 = ZFP SBS#1355 (synthetic)
# Sequence of ZFP SBS#1355 (synthetic) (chain, as listed by the source): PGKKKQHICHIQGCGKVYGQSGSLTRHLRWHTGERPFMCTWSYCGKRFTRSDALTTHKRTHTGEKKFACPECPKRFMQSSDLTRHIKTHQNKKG
# How it was run: as §1
# ZFP SBS#1357 = biological target: T24, ZFP SBS#1357 (synthetic)
# T24 chain: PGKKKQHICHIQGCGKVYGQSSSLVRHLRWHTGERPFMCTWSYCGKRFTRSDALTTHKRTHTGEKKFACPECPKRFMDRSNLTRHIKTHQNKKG
# How it was run: as §1
# ZFP SBS#1358 = biological target: T25, ZFP SBS#1358 (synthetic)
# T25 chain: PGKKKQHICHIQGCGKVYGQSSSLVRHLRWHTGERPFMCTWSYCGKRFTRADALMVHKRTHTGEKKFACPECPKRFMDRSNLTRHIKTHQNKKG
# How it was run: as §1
binder,measurement,setting,value
B1,Kd,ZFP SBS#1318,0.048 nM
same,Kd,ZFP SBS#1319,0.228 nM
B2,Kd,ZFP SBS#1321,0.127 nM
same,Kd,ZFP SBS#1320,0.044 nM
B3,Kd,ZFP SBS#1323,0.744 nM
same,Kd,ZFP SBS#1324,18.5 nM
same,Kd,ZFP SBS#1322,0.799 nM
B4,Kd,ZFP SBS#1325,0.306 nM
same,Kd,ZFP SBS#1326,4.38 nM
same,Kd,ZFP SBS#1327,0.566 nM
same,Kd,ZFP SBS#1328,7.95 nM
B5,Kd,ZFP SBS#1330,0.175 nM
B6,Kd,ZFP SBS#1334,0.31 nM
B7,Kd,ZFP SBS#1335,1.4 nM
B8,Kd,ZFP SBS#1337,0.235 nM
same,Kd,ZFP SBS#1336,1.4 nM
B9,Kd,ZFP SBS#1339,0.569 nM
same,Kd,ZFP SBS#1341,4.1 nM
same,Kd,ZFP SBS#1340,0.751 nM
same,Kd,ZFP SBS#1338,1.04 nM
B10,Kd,ZFP SBS#1342,0.68 nM
same,Kd,ZFP SBS#1343,37 nM
B11,Kd,ZFP SBS#1344,2.28 nM
B12,Kd,ZFP SBS#1346,0.153 nM
B13,Kd,ZFP SBS#1347,8.23 nM
same,Kd,ZFP SBS#1350,74.1 nM
B14,Kd,ZFP SBS#1351,0.234 nM
same,Kd,ZFP SBS#1348,2.58 nM
B15,Kd,ZFP SBS#1352,0.023 nM
B16,Kd,ZFP SBS#1353,56.5 nM
same,Kd,ZFP SBS#1354,20.9 nM
B17,Kd,ZFP SBS#1356,0.034 nM
same,Kd,ZFP SBS#1355,0.172 nM
B18,Kd,ZFP SBS#1357,0.032 nM
same,Kd,ZFP SBS#1358,0.05 nM
